Reference: article PMC2415180 (BMC Biotechnology, 2008)

Tests used:
[1] = target: BChE/hSA fusion protein (recombinant human butyrylcholinesterase fused to human serum albumin) in the milk of transgenic goats (human) (UniProt P06276); test: SEC + native gel or EMSA
[2] = target: BChE/hSA fusion protein (recombinant human butyrylcholinesterase fused to human serum albumin) in the milk of transgenic mice (human) (UniProt P06276); test: SEC + native gel or EMSA
SEC = target: the molecule itself; test: SEC

## BChE/hSA fusion protein (recombinant human butyrylcholinesterase fused to human serum albumin) in the milk of transgenic goats (from UniProt P06276 29-602; P02768 25-609) (enzyme)
[1]
  stoichiometry N: 2

## BChE/hSA fusion protein (recombinant human butyrylcholinesterase fused to human serum albumin) in the milk of transgenic mice (from UniProt P06276 29-602; P02768 25-609) (enzyme)
[2]
  stoichiometry N: 2

B1: recombinant human butyrylcholinesterase produced transgenically in goat milk, tetramer-enriched preparation (>70% tetramer) (enzyme, UniProt P06276 29-602, looked up)
chain: EDDIIIATKNGKVRGMNLTVFGGTVTAFLGIPYAQPPLGRLRFKKPQSLTKWSDIWNATKYANSCCQNIDQSFPGFHGSEMWNPNTDLSEDCLYLNVWIPAPKPKNATVLIWIYGGGFQTGTSSLHVYDGKFLARVERVIVVSMNYRVGALGFLALPGNPEAPGNMGLFDQQLALQWVQKNIAAFGGNPKSVTLFGESAGAASVSLHLLSPGSHSLFTRAILQSGSFNAPWAVTSLYEARNRTLNLAKLTGCSRENETEIIKCLRNKDPQEILLNEAFVVPYGTPLSVNFGPTVDGDFLTDMPDILLELGQFKKTQILVGVNKDEGTAFLVYGAPGFSKDNNSIITRKEFQEGLKIFFPGVSEFGKESILFHYTDWVDDQRPENYREALGDVVGDYNFICPALEFTKKFSEWGNNAFFYYFEHRSSKLPWPEWMGVMHGYEIEFVFGLPLERRDNYTKAEEILSRSIVKRWANFAKYGNPNETQNNSTSWPVFKSTEQKYLTLNTESTRIMTKLRAQQCRFWTSFFPKVLEMTGNIDEAEWEWKAGFHRWNNYMMDWKNQFNDYTSKKESCVGL
notes: also called tetramer-enriched BChE; BChE produced transgenically (>70% tetramer)
SEC
  stoichiometry N: 4
